Drawing on publication PMC11191652 (Biomaterials science, 2024), this text covers Kd for one molecule.

This assay addresses p300 (UniProt Q09472 1-2414). Kind of assay: ELISA. In general terms: ELISA stands for enzyme-linked immunosorbent assay.

As a reminder, the Kd is a measure of binding affinity in units of concentration.

p300, sequence (Q09472 whole entry): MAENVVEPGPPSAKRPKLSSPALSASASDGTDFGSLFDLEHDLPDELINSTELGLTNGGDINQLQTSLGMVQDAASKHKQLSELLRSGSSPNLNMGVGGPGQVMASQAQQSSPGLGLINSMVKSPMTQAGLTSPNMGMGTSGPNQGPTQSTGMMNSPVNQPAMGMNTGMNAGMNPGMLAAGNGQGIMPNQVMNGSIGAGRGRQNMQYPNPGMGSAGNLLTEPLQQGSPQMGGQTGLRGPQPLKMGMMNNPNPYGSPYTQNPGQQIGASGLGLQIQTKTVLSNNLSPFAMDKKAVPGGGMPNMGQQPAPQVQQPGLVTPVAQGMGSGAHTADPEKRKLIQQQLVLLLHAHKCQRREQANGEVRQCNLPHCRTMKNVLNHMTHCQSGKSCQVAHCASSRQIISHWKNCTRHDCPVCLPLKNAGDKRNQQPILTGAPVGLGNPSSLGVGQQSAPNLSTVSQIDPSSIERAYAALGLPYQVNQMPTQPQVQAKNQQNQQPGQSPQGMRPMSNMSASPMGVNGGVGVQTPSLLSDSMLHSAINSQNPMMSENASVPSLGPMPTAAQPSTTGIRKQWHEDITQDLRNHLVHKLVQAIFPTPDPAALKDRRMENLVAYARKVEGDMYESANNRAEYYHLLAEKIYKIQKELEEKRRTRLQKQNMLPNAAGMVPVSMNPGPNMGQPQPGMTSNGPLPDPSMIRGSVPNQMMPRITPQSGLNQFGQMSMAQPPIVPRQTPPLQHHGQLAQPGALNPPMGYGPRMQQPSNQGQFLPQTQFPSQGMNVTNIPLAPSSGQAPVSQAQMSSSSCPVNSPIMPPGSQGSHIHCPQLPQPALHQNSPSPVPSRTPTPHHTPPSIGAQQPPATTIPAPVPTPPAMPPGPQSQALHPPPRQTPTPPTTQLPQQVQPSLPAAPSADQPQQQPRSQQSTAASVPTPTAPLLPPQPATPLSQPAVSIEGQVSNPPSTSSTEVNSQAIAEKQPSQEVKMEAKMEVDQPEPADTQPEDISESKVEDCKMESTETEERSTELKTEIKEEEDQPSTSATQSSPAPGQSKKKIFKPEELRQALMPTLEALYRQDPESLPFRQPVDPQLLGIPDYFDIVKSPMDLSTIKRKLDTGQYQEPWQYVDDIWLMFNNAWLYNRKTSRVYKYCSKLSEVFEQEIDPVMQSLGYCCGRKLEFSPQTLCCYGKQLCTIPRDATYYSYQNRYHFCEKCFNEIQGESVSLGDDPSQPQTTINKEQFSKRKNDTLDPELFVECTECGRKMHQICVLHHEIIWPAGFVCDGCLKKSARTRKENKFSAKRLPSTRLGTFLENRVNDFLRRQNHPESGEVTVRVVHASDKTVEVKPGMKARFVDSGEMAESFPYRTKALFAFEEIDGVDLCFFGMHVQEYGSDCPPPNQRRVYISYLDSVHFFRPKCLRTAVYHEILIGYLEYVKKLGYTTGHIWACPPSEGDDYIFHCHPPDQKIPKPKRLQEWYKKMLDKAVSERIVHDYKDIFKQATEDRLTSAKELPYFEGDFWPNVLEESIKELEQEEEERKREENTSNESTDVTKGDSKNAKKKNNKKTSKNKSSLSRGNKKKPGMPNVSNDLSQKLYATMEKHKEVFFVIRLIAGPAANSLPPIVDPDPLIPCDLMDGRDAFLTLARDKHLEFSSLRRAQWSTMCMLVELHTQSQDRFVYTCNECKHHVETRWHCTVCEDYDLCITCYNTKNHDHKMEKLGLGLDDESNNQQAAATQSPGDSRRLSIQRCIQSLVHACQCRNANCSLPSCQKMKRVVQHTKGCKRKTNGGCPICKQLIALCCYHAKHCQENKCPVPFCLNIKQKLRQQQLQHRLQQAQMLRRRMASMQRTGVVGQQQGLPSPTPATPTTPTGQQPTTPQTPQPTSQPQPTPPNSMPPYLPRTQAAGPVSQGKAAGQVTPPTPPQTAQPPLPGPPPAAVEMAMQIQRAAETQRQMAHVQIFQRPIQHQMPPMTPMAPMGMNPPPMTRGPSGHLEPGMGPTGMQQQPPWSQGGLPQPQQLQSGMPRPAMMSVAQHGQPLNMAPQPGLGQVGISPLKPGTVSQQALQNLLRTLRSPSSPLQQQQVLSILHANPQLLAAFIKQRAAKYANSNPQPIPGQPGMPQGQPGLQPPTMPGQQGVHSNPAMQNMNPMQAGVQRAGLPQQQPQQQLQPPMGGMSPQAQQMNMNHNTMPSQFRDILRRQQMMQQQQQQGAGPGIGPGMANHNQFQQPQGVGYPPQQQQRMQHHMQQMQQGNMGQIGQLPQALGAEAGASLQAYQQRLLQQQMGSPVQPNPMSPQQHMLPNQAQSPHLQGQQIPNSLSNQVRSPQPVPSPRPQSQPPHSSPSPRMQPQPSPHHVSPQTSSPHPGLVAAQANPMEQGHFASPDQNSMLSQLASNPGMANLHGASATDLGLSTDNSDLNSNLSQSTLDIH

SMDESGLPQLTSYDCEVNAPIQGSRNLLQGEELLRALDQVN (domain or fragment, UniProt Q16665 786-826, looked up) [HIF1α C-terminal transactivation domain, HIF1α_(786–826)] had a Kd of 14.5 nM.
